# Target: CD40 on the surface of mature dendritic cells (mDC) (human) (UniProt P25942)
# Assay: cell-based or functional assay
# Sequence of CD40 on the surface of mature dendritic cells (mDC) (human) (P25942 21-277): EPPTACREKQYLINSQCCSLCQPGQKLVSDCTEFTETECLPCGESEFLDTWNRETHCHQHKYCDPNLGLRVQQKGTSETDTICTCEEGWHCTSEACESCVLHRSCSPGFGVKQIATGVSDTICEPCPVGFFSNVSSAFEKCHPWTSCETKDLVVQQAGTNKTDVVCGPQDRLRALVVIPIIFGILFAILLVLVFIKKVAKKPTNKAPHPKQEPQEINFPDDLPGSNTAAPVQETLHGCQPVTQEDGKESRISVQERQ
substance,measurement,value
CD40L recombinant protein (from UniProt P29965 113-261) (ligand),"CD83+ (%) of mDC, agonist at 2 µg/mL (control group 81.00)",88.2%
same,"IL-12p70 (pg/mL), agonist at 2 µg/mL (control group 50.0)",874 pg/mL
